Laboratory results from patent US20220133849A1.

Biological target: Maxi-K channel of rat bladder detrusor smooth muscle (endogenous) (rat) (UniProt Q62976)
Assay: cell-based or functional assay

UniProt Q62976, sequence (Q62976 whole entry): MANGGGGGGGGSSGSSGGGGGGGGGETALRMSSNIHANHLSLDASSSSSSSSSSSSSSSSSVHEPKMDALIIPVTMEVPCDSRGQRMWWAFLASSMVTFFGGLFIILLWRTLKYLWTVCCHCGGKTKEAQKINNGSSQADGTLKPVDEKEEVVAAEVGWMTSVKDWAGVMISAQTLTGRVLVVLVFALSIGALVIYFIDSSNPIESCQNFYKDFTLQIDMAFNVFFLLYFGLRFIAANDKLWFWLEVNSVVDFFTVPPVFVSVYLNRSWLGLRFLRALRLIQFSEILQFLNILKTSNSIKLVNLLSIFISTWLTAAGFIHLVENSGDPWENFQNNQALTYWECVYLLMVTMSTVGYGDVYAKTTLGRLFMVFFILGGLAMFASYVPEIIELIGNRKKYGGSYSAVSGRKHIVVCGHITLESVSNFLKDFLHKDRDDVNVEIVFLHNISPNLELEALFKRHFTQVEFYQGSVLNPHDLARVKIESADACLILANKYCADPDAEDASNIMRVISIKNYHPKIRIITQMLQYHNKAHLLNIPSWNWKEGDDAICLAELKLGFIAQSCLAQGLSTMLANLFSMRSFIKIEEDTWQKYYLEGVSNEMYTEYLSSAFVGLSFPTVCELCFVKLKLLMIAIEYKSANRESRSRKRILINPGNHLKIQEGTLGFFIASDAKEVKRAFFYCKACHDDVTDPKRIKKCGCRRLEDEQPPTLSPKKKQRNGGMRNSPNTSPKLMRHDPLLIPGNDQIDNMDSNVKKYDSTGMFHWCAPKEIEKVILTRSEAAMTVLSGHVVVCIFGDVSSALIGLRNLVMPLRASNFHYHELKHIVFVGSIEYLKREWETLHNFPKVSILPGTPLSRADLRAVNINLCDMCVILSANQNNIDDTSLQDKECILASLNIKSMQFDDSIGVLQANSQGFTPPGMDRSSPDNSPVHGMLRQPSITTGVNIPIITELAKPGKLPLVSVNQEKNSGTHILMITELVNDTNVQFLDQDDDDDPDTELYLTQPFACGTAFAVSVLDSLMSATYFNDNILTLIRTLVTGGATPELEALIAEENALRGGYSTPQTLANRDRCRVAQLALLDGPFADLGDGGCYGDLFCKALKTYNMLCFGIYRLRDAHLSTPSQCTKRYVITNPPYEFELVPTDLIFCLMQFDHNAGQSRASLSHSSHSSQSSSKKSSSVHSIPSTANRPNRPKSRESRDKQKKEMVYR

iberiotoxin (from UniProt P24663 1-37) (peptide)
outward current in response to applied voltage, single whole-cell patch clamp of isolated rat detrusor cells, 300 nM IBTX: > 50%
